Test results from patent US20230013244A1 (BioIncept, LLC, priority 2014, published 2023).

Key:
[1] = target: 14-3-3 protein theta (human) (UniProt P27348); experiment: PIF affinity column + LC-MS/MS, CD14+ cell lysate
Matrin-3 (human) = Matrin-3 (human) (UniProt A8MXP9); experiment: PIF affinity column + LC-MS/MS, CD14+ cell lysate

Sequence of 14-3-3 protein theta (human) (P27348 whole entry): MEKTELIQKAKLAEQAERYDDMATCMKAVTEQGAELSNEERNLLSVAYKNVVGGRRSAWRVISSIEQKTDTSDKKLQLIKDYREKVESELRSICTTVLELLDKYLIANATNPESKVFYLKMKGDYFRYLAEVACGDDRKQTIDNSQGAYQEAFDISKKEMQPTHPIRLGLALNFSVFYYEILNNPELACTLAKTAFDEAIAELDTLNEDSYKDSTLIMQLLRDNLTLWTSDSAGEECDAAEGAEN

PIF-resin (PIF15 affinity ligand on agarose) (peptide)
1: Ave [1] | Inject 1 [1] | Inject 2 [1] | Ave (Matrin-3 (human)) | Inject 1 (Matrin-3 (human)) | Inject 3 (Matrin-3 (human))
